Measurements published in paper PMC4800742.

Target: T1, RanGAP1 (human, UniProt P46060 1-587)
T1 sequence: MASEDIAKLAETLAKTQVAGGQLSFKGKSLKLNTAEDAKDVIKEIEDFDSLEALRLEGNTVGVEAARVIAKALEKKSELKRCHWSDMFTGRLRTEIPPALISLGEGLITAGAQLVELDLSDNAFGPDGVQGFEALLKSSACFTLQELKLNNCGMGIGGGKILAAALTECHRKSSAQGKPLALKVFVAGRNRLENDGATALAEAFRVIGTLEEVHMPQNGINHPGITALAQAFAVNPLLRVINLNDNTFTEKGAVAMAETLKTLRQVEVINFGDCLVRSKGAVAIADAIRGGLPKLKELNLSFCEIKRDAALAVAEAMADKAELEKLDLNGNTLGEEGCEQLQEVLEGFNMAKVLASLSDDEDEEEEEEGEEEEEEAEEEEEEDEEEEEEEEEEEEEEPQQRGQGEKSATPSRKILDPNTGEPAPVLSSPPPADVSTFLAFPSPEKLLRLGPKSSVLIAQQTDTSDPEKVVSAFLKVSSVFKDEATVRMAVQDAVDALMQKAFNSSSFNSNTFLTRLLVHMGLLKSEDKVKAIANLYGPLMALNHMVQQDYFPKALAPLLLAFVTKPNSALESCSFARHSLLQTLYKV
Assay: EMSA

B1: (G4C2)4 G-quadruplex (structured_RNA)
RNA: GGGGCCGGGGCCGGGGCCGGGGCC
  apparent K (half saturation): 162 nM
